From publication PMC3148250, “Structural Basis for Sequence Specific DNA Binding and Protein Dimerization of HOXA13”

Experiments:
A13DBD N370A = A13DBD N370A (mouse (murine), UniProt Q62424 320-386, N370A); experiment: ITC; text says ~1000-fold lower affinity; FA: 20 mM Tris pH 7.5, 80 mM KCl, 10 mM MgCl2, 0.2 mM EDTA, 1 mM DTT, 15 C, 1 nM DNA; NMR complex: 20 mM NaPO4 pH 6.0, 5 mM MgCl2, 10% D2O, 310 K; ITC buffer not given in the material; conditions: protein: recombinant; tags: His-tag removed by thrombin; blunt
A13DBD F344A = A13DBD F344A (mouse (murine), UniProt Q62424 320-386, F344A); experiment: ITC; does not affect DNA binding; FA: 20 mM Tris pH 7.5, 80 mM KCl, 10 mM MgCl2, 0.2 mM EDTA, 1 mM DTT, 15 C, 1 nM DNA; NMR complex: 20 mM NaPO4 pH 6.0, 5 mM MgCl2, 10% D2O, 310 K; ITC buffer not given in the material; conditions: protein: recombinant; tags: His-tag removed by thrombin; blunt
A13DBD V373G [1] = target: T1, A13DBD V373G (mouse (murine), UniProt Q62424 320-386, V373G); experiment: ITC; text says 3-4-fold lower affinity; FA: 20 mM Tris pH 7.5, 80 mM KCl, 10 mM MgCl2, 0.2 mM EDTA, 1 mM DTT, 15 C, 1 nM DNA; NMR complex: 20 mM NaPO4 pH 6.0, 5 mM MgCl2, 10% D2O, 310 K; ITC buffer not given in the material; conditions: protein: recombinant; tags: His-tag removed by thrombin; blunt
A13DBD I366A = A13DBD I366A (mouse (murine), UniProt Q62424 320-386, I366A); experiment: ITC; FA: 20 mM Tris pH 7.5, 80 mM KCl, 10 mM MgCl2, 0.2 mM EDTA, 1 mM DTT, 15 C, 1 nM DNA; NMR complex: 20 mM NaPO4 pH 6.0, 5 mM MgCl2, 10% D2O, 310 K; ITC buffer not given in the material; conditions: protein: recombinant; tags: His-tag removed by thrombin; blunt
A13DBD WT [2] = target: T2, A13DBD WT (mouse (murine), UniProt Q62424 320-386); experiment: as above; conditions: protein: recombinant, tags: His-tag removed by thrombin
A13DBD V373A = A13DBD V373A (mouse (murine), UniProt Q62424 320-386, V373A); experiment: as above; conditions: protein: recombinant; tags: His-tag removed by thrombin; blunt
A13DBD WT [3] = target: T2, A13DBD WT; experiment: fluorescence anisotropy; 10 mM MgCl2; FA: 20 mM Tris pH 7.5, 80 mM KCl, 10 mM MgCl2, 0.2 mM EDTA, 1 mM DTT, 15 C, 1 nM DNA; NMR complex: 20 mM NaPO4 pH 6.0, 5 mM MgCl2, 10% D2O, 310 K; ITC buffer not given in the material; conditions: protein: recombinant; tags: His-tag removed by thrombin; label: 5' 6-FAM via hexyl linker; hairpin (self-annealing)
A13DBD V373G [4] = target: T1, A13DBD V373G; experiment: as above; conditions: protein: recombinant; tags: His-tag removed by thrombin; label: 5' 6-FAM via hexyl linker; hairpin (self-annealing)
A13DBD WT [5] = target: T2, A13DBD WT; experiment: fluorescence anisotropy; 10 mM MgCl2; text fold changes suggest T6*C and T6*U swapped; FA: 20 mM Tris pH 7.5, 80 mM KCl, 10 mM MgCl2, 0.2 mM EDTA, 1 mM DTT, 15 C, 1 nM DNA; NMR complex: 20 mM NaPO4 pH 6.0, 5 mM MgCl2, 10% D2O, 310 K; ITC buffer not given in the material; conditions: protein: recombinant; tags: His-tag removed by thrombin; label: 5' 6-FAM via hexyl linker; hairpin (self-annealing)
A13DBD V373G [6] = target: T1, A13DBD V373G; experiment: ITC; FA: 20 mM Tris pH 7.5, 80 mM KCl, 10 mM MgCl2, 0.2 mM EDTA, 1 mM DTT, 15 C, 1 nM DNA; NMR complex: 20 mM NaPO4 pH 6.0, 5 mM MgCl2, 10% D2O, 310 K; ITC buffer not given in the material; conditions: protein: recombinant; tags: His-tag removed by thrombin; C5-A5* mismatch with strand 2 as printed
A13DBD V373G [7] = target: T1, A13DBD V373G; experiment: competition; 50 nM already competes with consensus; 4 uM protein; FA: 20 mM Tris pH 7.5, 80 mM KCl, 10 mM MgCl2, 0.2 mM EDTA, 1 mM DTT, 15 C, 1 nM DNA; NMR complex: 20 mM NaPO4 pH 6.0, 5 mM MgCl2, 10% D2O, 310 K; ITC buffer not given in the material; conditions: protein: recombinant; tags: His-tag removed by thrombin; hairpin (self-annealing)

T2 sequence (Q62424 320-386): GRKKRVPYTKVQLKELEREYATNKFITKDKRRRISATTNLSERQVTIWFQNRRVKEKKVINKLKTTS
T1 sequence (Q62424 320-386 V373G): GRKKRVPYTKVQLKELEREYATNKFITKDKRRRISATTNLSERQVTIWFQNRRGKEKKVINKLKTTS
A13DBD V373A, sequence (Q62424 320-386 V373A): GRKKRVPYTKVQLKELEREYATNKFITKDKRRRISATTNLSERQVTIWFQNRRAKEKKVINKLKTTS
A13DBD I366A, sequence (Q62424 320-386 I366A): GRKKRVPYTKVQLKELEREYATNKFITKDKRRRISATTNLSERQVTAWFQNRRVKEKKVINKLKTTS
A13DBD N370A, sequence (Q62424 320-386 N370A): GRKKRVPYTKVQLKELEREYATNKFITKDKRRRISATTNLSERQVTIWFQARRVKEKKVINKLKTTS
A13DBD F344A, sequence (Q62424 320-386 F344A): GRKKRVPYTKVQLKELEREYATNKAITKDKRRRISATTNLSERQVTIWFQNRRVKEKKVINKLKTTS

B1: 11-mer duplex WT (dsDNA)
DNA 1: CAAATAAAATC
DNA 2: GATTTTATTTG
B1 was tested, and the Kd (A13DBD N370A) was 862 nM, the binding result (A13DBD F344A) was “binds” and the Kd (A13DBD V373G [1]) was 137 nM. The Kd (A13DBD I366A) was 43.7 nM, the Kd (A13DBD WT [2]; blunt) was 7.5 nM and the Kd (A13DBD V373A) was 18.7 nM.

B2: 11-mer T5U (dsDNA)
DNA 1: CAAAUAAAATC
DNA 2: GATTTTATTTG
modifications: deoxyuridine at T5 (DNA strand)
B2 showed a Kd (A13DBD WT [2]; blunt) of 14.5 nM.

B3: FA consensus (wt) (structured_DNA)
DNA: CAAATAAAATCCCCCATTTTATTTG
Work on B3 yielded a Kd (A13DBD WT [3]) of 2.19 ± 0.06 nM and a Kd (A13DBD V373G [4]) of 56.6 ± 2.25 nM.

B4: FA T5C (structured_DNA)
DNA: CAAACAAAATCCCCCATTTTGTTTG
Work on B4 yielded a Kd (A13DBD WT [3]) of 49.2 ± 4.97 nM and a Kd (A13DBD V373G [4]) of 616 ± 56.1 nM.

B5: FA T5U (structured_DNA)
DNA: CAAAUAAATCCCCCATTTTATTGTG
modifications: deoxyuridine at position 5
B5 gave a Kd (A13DBD WT [3]) of 4.01 ± 0.28 nM.

B6: FA T6*C (structured_DNA)
DNA: CAAATGAAATCCCCCATTTCATTG
B6 was tested, and the Kd (A13DBD V373G [4]) was 79.3 ± 6.93 nM and the Kd (A13DBD WT [5]) was 5.95 ± 0.64 nM.

B7: 11-mer T5C (dsDNA)
DNA 1: CAAACAAAATC
DNA 2: GATTTTATTTG
Work on B7 yielded a Kd (A13DBD WT [2]; C5-A5* mismatch with strand 2 as printed) of 286 nM and a Kd (A13DBD V373G [6]) of 617 nM.

B8: Scrambled (structured_DNA)
DNA: TGACTGACTGACTGCCCCCCAGTCAG
B8: binds (A13DBD V373G [7]).
